According to patent publication US20250179183A1:
Values joined by “and” are separate entries in the source; they are usually repeats but may differ in a detail not shown here. Equal entries are not always repeated.

Experiments:
[1] = biological target: SARS-CoV-2 spike N439K variant (pseudovirus RVP-703) (SARS-CoV-2) (UniProt P0DTC2); assay: cell-based or functional assay
[2] = biological target: SARS-CoV-2 spike South African Δ3 B.1.351 variant (pseudovirus RVP-724) (SARS-CoV-2) (UniProt P0DTC2); assay: cell-based or functional assay

Question: With REGN10987 (antibody) as the substance, how does the EC50 (pM) Neutralization, pseudovirus [1] read?
Answer: The EC50 (pM) Neutralization, pseudovirus was 2260 pM and 2220 pM.

Question: What about the EC50 (pM) Neutralization, pseudovirus [2] of the same substance?
Answer: The EC50 (pM) Neutralization, pseudovirus was 2.48 pM and 2.37 pM.
